The target in series [1] is Mycobacterium tuberculosis (Mtb) PhoP, phosphorylated (Mycobacterium tuberculosis) (UniProt P71814). The experiment in a line: cryo-EM structure.
Series [2] addresses RNAP holoenzyme (sigma A);GlnR (Mycobacterium …, UniProt P9WGZ1;P9WGY9;P9WGY7;P9WGY5;P9WGI1;O53830 1-347;1-1178;1-1316;1-110;1-528;1-255, |). Put plainly: EMSA. A general note: A gel shift assay detects complexes by their altered migration in electrophoresis.
Another series has as its target T1, Mtb RNAP β subunit (Mycobacterium tuberculosis, UniProt P9WGY9 1-1178).
T1 sequence: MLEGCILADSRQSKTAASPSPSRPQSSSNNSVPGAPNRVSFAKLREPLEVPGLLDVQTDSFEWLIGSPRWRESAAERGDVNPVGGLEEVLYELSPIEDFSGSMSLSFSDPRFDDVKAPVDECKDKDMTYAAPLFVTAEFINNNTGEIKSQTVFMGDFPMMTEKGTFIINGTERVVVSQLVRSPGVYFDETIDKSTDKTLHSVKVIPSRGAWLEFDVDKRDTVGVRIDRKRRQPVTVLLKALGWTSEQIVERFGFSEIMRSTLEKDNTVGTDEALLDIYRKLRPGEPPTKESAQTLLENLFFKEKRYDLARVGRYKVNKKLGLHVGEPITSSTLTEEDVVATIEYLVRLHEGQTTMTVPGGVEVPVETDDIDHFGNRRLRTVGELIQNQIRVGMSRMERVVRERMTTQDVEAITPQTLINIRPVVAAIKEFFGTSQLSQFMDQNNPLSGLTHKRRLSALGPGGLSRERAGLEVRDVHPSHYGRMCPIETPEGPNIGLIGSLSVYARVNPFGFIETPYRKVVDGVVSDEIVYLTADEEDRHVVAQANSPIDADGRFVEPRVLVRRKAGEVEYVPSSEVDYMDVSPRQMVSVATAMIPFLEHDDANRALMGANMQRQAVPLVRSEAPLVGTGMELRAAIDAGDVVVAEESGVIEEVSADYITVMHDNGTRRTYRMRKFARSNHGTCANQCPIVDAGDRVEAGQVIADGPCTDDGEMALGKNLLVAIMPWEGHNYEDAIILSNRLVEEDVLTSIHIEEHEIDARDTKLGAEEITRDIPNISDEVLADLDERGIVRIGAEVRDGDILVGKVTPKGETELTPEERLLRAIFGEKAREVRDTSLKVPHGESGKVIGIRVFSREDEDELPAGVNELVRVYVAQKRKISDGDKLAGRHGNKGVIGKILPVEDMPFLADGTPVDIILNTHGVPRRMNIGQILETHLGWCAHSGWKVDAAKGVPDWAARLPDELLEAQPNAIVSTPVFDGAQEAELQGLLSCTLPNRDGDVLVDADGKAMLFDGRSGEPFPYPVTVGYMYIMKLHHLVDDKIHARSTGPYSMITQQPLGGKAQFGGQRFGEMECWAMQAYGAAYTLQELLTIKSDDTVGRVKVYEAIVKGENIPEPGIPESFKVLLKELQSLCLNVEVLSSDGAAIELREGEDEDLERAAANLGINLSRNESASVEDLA
Put plainly: cryo-EM structure.

The target in the next series is T2, Mtb RNAP α subunit (Mycobacterium tuberculosis, UniProt P9WGZ1).
T2 sequence: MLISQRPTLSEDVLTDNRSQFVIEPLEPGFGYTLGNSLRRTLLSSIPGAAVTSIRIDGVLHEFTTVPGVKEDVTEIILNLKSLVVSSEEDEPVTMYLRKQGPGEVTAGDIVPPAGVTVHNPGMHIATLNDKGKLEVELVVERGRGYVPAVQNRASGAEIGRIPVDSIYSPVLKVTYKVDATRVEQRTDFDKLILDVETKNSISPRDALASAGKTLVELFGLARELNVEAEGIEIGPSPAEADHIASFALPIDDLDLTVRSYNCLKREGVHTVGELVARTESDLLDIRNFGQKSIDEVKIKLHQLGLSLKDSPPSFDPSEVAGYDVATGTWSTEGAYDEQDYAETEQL
Put plainly: cryo-EM structure.

The target of a further series is T3, Mtb RNAP σ^A (Mycobacterium tuberculosis, UniProt P9WGI1).
T3 sequence: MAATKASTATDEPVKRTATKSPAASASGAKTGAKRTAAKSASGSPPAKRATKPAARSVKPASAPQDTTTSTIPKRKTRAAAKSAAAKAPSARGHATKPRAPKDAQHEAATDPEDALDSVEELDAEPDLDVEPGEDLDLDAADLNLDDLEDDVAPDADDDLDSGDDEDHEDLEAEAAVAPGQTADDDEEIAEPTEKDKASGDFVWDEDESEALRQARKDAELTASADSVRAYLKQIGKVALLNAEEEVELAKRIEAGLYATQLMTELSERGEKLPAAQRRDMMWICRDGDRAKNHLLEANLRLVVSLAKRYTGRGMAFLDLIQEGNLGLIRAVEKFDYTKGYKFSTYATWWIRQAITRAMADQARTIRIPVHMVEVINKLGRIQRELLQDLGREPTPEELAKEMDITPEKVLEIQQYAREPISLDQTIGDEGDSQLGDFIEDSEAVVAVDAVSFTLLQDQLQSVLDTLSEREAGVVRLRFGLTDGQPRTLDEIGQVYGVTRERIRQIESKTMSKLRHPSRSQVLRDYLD
Put plainly: cryo-EM structure.

The series “cryo-EM structure” deals with the molecule itself. The experiment in a line: cryo-EM structure.

In general, stoichiometry N refers to a count of units in the complex or per binding partner.

As to “Mycobacterium tuberculosis (Mtb) PhoP, phosphorylated (from UniProt P71814 1-247) (natural protein)”, in series [1], the stoichiometry N was determined as 2.

B1: phoU promoter (mango-fused) (dsDNA)
DNA 1: ACCTCGAACACTCGTCGCCCAGAGTTCACCTTGGAGCCAGGGACGGTTCATTTGGGGTGCCGGAAACGGACGCGTACAGGCCGGAACGTGTAAGCGTGGGGGCACGGCGGGGGGCGCGAAGCCGGCACGTACGAAGGAAGGATTGGTATGTGGTATATTCGTACGTGCC
DNA 2: GGCACGTACGAATATACCACATACCAATCCTTCCTTCGTACGTGCCGGCTTCGCGCCCCCCGCCGTGCCCCCACGCTTACACGTTCCGGCCTGTACGCGTCCGTTTCCGGCACCCCAAATGAACCGTCCCTGGCTCCAAGGTGAACTCTGGGCGACGAGTGTTCGAGGT
For B1, the binding result in series [2] is on record as “no binding”.

B2: Mtb GlnR (natural protein)
chain: MLELLLLTSELYPDPVLPALSLLPHTVRTAPAEASSLLEAGNADAVLVDARNDLSSGRGLCRLLSSTGRSIPVLAVVSEGGLVAVSADWGLDEILLLSTGPAEIDARLRLVVGRRGDLADQESLGKVSLGELVIDEGTYTARLRGRPLDLTYKEFELLKYLAQHAGRVFTRAQLLHEVWGYDFFGGTRTVDVHVRRLRAKLGPEHEALIGTVRNVGYKAVRPARGRPPAADPDDEDADPGRDGMQEPLVDPLRSQ
For the molecule B2, the binding result with Mtb RNAP β subunit, with Mtb RNAP α subunit, with Mtb RNAP σ^A and in “cryo-EM structure” was “binds” throughout.

The record behind these values is paper PMC11825685 (Nature Communications, 2024).
